From patent US20240279298A1 (BEIJING TUO JIE BIOPHARMACEUTICAL CO. LTD., priority 2021, published 2024)
Structures can show the parent of a compound that is named as a salt. [ ]: non-standard residue; d: D form. Aib = CC(C)(N)C(=O)O

T1: human glucose-dependent insulinotropic polypeptide receptor (GIPR) (human, UniProt P48546 22-466)
T1 sequence (looked up): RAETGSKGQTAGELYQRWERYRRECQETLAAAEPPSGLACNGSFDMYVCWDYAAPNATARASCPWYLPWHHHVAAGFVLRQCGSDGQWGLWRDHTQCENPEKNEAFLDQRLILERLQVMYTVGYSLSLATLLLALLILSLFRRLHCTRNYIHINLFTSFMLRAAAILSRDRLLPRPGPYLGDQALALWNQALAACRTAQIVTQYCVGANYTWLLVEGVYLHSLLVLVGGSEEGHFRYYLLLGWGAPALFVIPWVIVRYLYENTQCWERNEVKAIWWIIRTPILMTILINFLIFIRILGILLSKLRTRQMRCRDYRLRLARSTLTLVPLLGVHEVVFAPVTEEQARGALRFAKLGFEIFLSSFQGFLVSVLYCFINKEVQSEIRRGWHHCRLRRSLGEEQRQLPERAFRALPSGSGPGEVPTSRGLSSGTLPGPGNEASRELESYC


What was measured:
in vitro = conditions: human, human kidney microsomes
human kidney microsomes = assay: Stability in human kidney microsome incubation system
[1] = system: insulin-induced hypoglycemia rat model; assay: Efficacy in insulin-induced hypoglycemic rat model; assay type: in vivo, SD rats; conditions: insulin 0.65 IU/kg subcutaneous at T0, phosphate buffer at 45 min (model control)
[2] = molecular target: human glucagon receptor (GCGR) (human, UniProt P47871 26-477); assay: cell-based or functional assay
[3] = molecular target: human glucagon-like peptide-1 receptor (GLP-1R) (human, UniProt P43220 24-463); assay: cell-based or functional assay
[4] = molecular target: T1, human glucose-dependent insulinotropic …; assay: cell-based or functional assay

Chain of human glucagon receptor (GCGR) (P47871 26-477): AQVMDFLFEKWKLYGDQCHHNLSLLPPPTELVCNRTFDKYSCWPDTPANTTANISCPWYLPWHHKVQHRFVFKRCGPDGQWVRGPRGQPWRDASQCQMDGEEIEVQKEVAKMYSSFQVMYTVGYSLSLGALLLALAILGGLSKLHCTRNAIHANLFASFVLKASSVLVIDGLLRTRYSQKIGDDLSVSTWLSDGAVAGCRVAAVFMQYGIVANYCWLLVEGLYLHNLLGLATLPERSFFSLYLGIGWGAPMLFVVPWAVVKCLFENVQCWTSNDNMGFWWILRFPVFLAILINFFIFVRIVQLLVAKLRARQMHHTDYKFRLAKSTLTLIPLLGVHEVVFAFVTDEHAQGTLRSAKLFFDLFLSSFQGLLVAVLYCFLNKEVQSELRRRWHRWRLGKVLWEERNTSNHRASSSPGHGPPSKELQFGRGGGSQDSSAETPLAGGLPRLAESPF

| Molecule | Human GCGR receptor EC50 (nM), cAMP HTRF in CHO-K1/GCGR/CRE-Luc cells [2] [nM] | Relative activity (%) (normalized by the activity of the native glucagon), cAMP HTRF [2] | GLP-1R % Activity relative to native GLP-1, cAMP HTRF [3] [%] | GLP-1R EC50 (nM), cAMP HTRF in CHO-GLP-1R cells [3] [nM] | GIPR % Activity relative to native GIP, cAMP HTRF [4] [%] | GIPR EC50 (nM), cAMP HTRF in CHO-K1/GIPR cells [4] [nM] | other results |
| --- | --- | --- | --- | --- | --- | --- | --- |
| CN(C)CCCOc1nn(Cc2ccccc2)c2ccccc12 [Benzydamine hydrochloride, benzydamine hydrochloride] |  |  |  |  |  |  | half-life at 1 μM (in vitro): 1.1 h; remaining at 0.25 h, 1 μM (in vitro): 83.1%; remaining at 0.5 h, 1 μM (in vitro): 70.8%; remaining at 1 h, 1 μM (in vitro): 54.2%; Percentage residues 0 min (human kidney microsomes; With NADPH): 100.0%; Percentage residues 120 min (human kidney microsomes; With NADPH): 28.12%; Percentage residues 0 min (human kidney microsomes; Without NADPH): 100.0%; Percentage residues 15 min (human kidney microsomes; Without NADPH): 85.59%; Percentage residues 30 min (human kidney microsomes; Without NADPH): 86.82%; Percentage residues 60 min (human kidney microsomes; Without NADPH): 90.39%; Percentage residues 120 min (human kidney microsomes; Without NADPH): 90.95% |
| Insulin: insulin, 0.65 IU/kg subcutaneous, used to induce hypoglycemia in the modeling groups [reference compound] |  |  |  |  |  |  | Blood glucose 60 min [1]: 3.47 mmol/L; Blood glucose 75 min [1]: 4.15 mmol/L; Blood glucose 90 min [1]: 4.85 mmol/L; Blood glucose 105 min [1]: 5.42 mmol/L |
| H-HSQGTFTSDYSKYLDV[Aib]RAQEFVQWLEST-OH (SMILES CC(C)C[C@H](NC(=O)[C@H](Cc1c[nH]c2ccccc12)NC(=O)[C@H](CCC(N)=O)NC(=O)[C@@H](NC(=O)[C@H](Cc1ccccc1)NC(=O)[C@H](CCC(=O)O)NC(=O)[C@H](CCC(N)=O)NC(=O)[C@H](C)NC(=O)[C@H](CCCNC(=N)N)NC(=O)C(C)(C)NC(=O)[C@@H](NC(=O)[C@H](CC(=O)O)NC(=O)[C@H](CC(C)C)NC(=O)[C@H](Cc1ccc(O)cc1)NC(=O)[C@H](CCCCN)NC(=O)[C@H](CO)NC(=O)[C@H](Cc1ccc(O)cc1)NC(=O)[C@H](CC(=O)O)NC(=O)[C@H](CO)NC(=O)[C@@H](NC(=O)[C@H](Cc1ccccc1)NC(=O)[C@@H](NC(=O)CNC(=O)[C@H](CCC(N)=O)NC(=O)[C@H](CO)NC(=O)[C@@H](N)Cc1c[nH]cn1)[C@@H](C)O)[C@@H](C)O)C(C)C)C(C)C)C(=O)N[C@@H](CCC(=O)O)C(=O)N[C@@H](CO)C(=O)N[C@H](C(=O)O)[C@@H](C)O) [Glucagon analog compound 41] | 0.058 | 333 | 0.231 | 116 | < 0.07 | > 100 |  |
| H-HSHGTFTSDYSKYLDL[Aib]RAQEFVQWLEST-OH (SMILES CC(C)C[C@H](NC(=O)[C@H](Cc1ccc(O)cc1)NC(=O)[C@H](CCCCN)NC(=O)[C@H](CO)NC(=O)[C@H](Cc1ccc(O)cc1)NC(=O)[C@H](CC(=O)O)NC(=O)[C@H](CO)NC(=O)[C@@H](NC(=O)[C@H](Cc1ccccc1)NC(=O)[C@@H](NC(=O)CNC(=O)[C@H](Cc1c[nH]cn1)NC(=O)[C@H](CO)NC(=O)[C@@H](N)Cc1c[nH]cn1)[C@@H](C)O)[C@@H](C)O)C(=O)N[C@@H](CC(=O)O)C(=O)N[C@@H](CC(C)C)C(=O)NC(C)(C)C(=O)N[C@@H](CCCNC(=N)N)C(=O)N[C@@H](C)C(=O)N[C@@H](CCC(N)=O)C(=O)N[C@@H](CCC(=O)O)C(=O)N[C@@H](Cc1ccccc1)C(=O)N[C@H](C(=O)N[C@@H](CCC(N)=O)C(=O)N[C@@H](Cc1c[nH]c2ccccc12)C(=O)N[C@@H](CC(C)C)C(=O)N[C@@H](CCC(=O)O)C(=O)N[C@@H](CO)C(=O)N[C@H](C(=O)O)[C@@H](C)O)C(C)C) [Glucagon analog compound 43] | 0.052 | 371 |  |  |  |  |  |

Now from value to molecule, other results behind:

| Human GCGR receptor EC50 (nM), cAMP HTRF in CHO-K1/GCGR/CRE-Luc cells [2] [nM] | Relative activity (%) (normalized by the activity of the native glucagon), cAMP HTRF [2] | GLP-1R % Activity relative to native GLP-1, cAMP HTRF [3] [%] | GLP-1R EC50 (nM), cAMP HTRF in CHO-GLP-1R cells [3] [nM] | GIPR % Activity relative to native GIP, cAMP HTRF [4] [%] | GIPR EC50 (nM), cAMP HTRF in CHO-K1/GIPR cells [4] [nM] | Molecule | other results |
| --- | --- | --- | --- | --- | --- | --- | --- |
| 0.076 | 253 |  |  |  |  | H-HSHGTFTSDYSKYLDL[Aib]RAQEFVEWLEST-OH (SMILES CC(C)C[C@H](NC(=O)[C@H](Cc1ccc(O)cc1)NC(=O)[C@H](CCCCN)NC(=O)[C@H](CO)NC(=O)[C@H](Cc1ccc(O)cc1)NC(=O)[C@H](CC(=O)O)NC(=O)[C@H](CO)NC(=O)[C@@H](NC(=O)[C@H](Cc1ccccc1)NC(=O)[C@@H](NC(=O)CNC(=O)[C@H](Cc1c[nH]cn1)NC(=O)[C@H](CO)NC(=O)[C@@H](N)Cc1c[nH]cn1)[C@@H](C)O)[C@@H](C)O)C(=O)N[C@@H](CC(=O)O)C(=O)N[C@@H](CC(C)C)C(=O)NC(C)(C)C(=O)N[C@@H](CCCNC(=N)N)C(=O)N[C@@H](C)C(=O)N[C@@H](CCC(N)=O)C(=O)N[C@@H](CCC(=O)O)C(=O)N[C@@H](Cc1ccccc1)C(=O)N[C@H](C(=O)N[C@@H](CCC(=O)O)C(=O)N[C@@H](Cc1c[nH]c2ccccc12)C(=O)N[C@@H](CC(C)C)C(=O)N[C@@H](CCC(=O)O)C(=O)N[C@@H](CO)C(=O)N[C@H](C(=O)O)[C@@H](C)O)C(C)C) [Glucagon analog compound 47] |  |
| 0.072 | 268 | 0.212 | 127 | < 0.07 | > 100 | H-HSQGTFTSDYSKYLDT[Aib]RAQEFVQWLEST-OH (SMILES CC(C)C[C@H](NC(=O)[C@H](Cc1c[nH]c2ccccc12)NC(=O)[C@H](CCC(N)=O)NC(=O)[C@@H](NC(=O)[C@H](Cc1ccccc1)NC(=O)[C@H](CCC(=O)O)NC(=O)[C@H](CCC(N)=O)NC(=O)[C@H](C)NC(=O)[C@H](CCCNC(=N)N)NC(=O)C(C)(C)NC(=O)[C@@H](NC(=O)[C@H](CC(=O)O)NC(=O)[C@H](CC(C)C)NC(=O)[C@H](Cc1ccc(O)cc1)NC(=O)[C@H](CCCCN)NC(=O)[C@H](CO)NC(=O)[C@H](Cc1ccc(O)cc1)NC(=O)[C@H](CC(=O)O)NC(=O)[C@H](CO)NC(=O)[C@@H](NC(=O)[C@H](Cc1ccccc1)NC(=O)[C@@H](NC(=O)CNC(=O)[C@H](CCC(N)=O)NC(=O)[C@H](CO)NC(=O)[C@@H](N)Cc1c[nH]cn1)[C@@H](C)O)[C@@H](C)O)[C@@H](C)O)C(C)C)C(=O)N[C@@H](CCC(=O)O)C(=O)N[C@@H](CO)C(=O)N[C@H](C(=O)O)[C@@H](C)O) [Glucagon analog compound 39] |  |
| 0.093 | 207 | 0.291 | 92.1 | < 0.07 | > 100 | H-HSQGTFTSDYSKYLDI[Aib]RAQEFVQWLEST-OH (SMILES CC[C@H](C)[C@H](NC(=O)[C@H](CC(=O)O)NC(=O)[C@H](CC(C)C)NC(=O)[C@H](Cc1ccc(O)cc1)NC(=O)[C@H](CCCCN)NC(=O)[C@H](CO)NC(=O)[C@H](Cc1ccc(O)cc1)NC(=O)[C@H](CC(=O)O)NC(=O)[C@H](CO)NC(=O)[C@@H](NC(=O)[C@H](Cc1ccccc1)NC(=O)[C@@H](NC(=O)CNC(=O)[C@H](CCC(N)=O)NC(=O)[C@H](CO)NC(=O)[C@@H](N)Cc1c[nH]cn1)[C@@H](C)O)[C@@H](C)O)C(=O)NC(C)(C)C(=O)N[C@@H](CCCNC(=N)N)C(=O)N[C@@H](C)C(=O)N[C@@H](CCC(N)=O)C(=O)N[C@@H](CCC(=O)O)C(=O)N[C@@H](Cc1ccccc1)C(=O)N[C@H](C(=O)N[C@@H](CCC(N)=O)C(=O)N[C@@H](Cc1c[nH]c2ccccc12)C(=O)N[C@@H](CC(C)C)C(=O)N[C@@H](CCC(=O)O)C(=O)N[C@@H](CO)C(=O)N[C@H](C(=O)O)[C@@H](C)O)C(C)C) [Glucagon analog compound 42] |  |
| 0.06 | 318 | 0.192 | 140 | < 0.07 | > 100 | H-HSQGTFTSDYSKYLDL[Aib]RAQEFVQWLEST-OH (SMILES CC(C)C[C@H](NC(=O)[C@H](Cc1ccc(O)cc1)NC(=O)[C@H](CCCCN)NC(=O)[C@H](CO)NC(=O)[C@H](Cc1ccc(O)cc1)NC(=O)[C@H](CC(=O)O)NC(=O)[C@H](CO)NC(=O)[C@@H](NC(=O)[C@H](Cc1ccccc1)NC(=O)[C@@H](NC(=O)CNC(=O)[C@H](CCC(N)=O)NC(=O)[C@H](CO)NC(=O)[C@@H](N)Cc1c[nH]cn1)[C@@H](C)O)[C@@H](C)O)C(=O)N[C@@H](CC(=O)O)C(=O)N[C@@H](CC(C)C)C(=O)NC(C)(C)C(=O)N[C@@H](CCCNC(=N)N)C(=O)N[C@@H](C)C(=O)N[C@@H](CCC(N)=O)C(=O)N[C@@H](CCC(=O)O)C(=O)N[C@@H](Cc1ccccc1)C(=O)N[C@H](C(=O)N[C@@H](CCC(N)=O)C(=O)N[C@@H](Cc1c[nH]c2ccccc12)C(=O)N[C@@H](CC(C)C)C(=O)N[C@@H](CCC(=O)O)C(=O)N[C@@H](CO)C(=O)N[C@H](C(=O)O)[C@@H](C)O)C(C)C) [Glucagon analog compound 40] |  |
